Experimental data published in article PMC6224610, “Structural basis for the recognition of sulfur in phosphorothioated DNA” (Nature Communications, 2018).

What was measured:
ScoMcrA-SBD [1] = target: T1, ScoMcrA-SBD (Streptomyces coelicolor, UniProt Q9L0M9 91-260); assay: fluorescence polarization; conditions: phosphorothioate G(PS)GCC, EMSA: 20 mM Tris-HCl pH 8.5, 200 mM NaCl, 1 mM DTT, 5% glycerol, 4 C, 30 min, FP: 20 mM Tris pH 8.0, 50 mM NaCl, room temperature, 5 nM …
T1 sequence: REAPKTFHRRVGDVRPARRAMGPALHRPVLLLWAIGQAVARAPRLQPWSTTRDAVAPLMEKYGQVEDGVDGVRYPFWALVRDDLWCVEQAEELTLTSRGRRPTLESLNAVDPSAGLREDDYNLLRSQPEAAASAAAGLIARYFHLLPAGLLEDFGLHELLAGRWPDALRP

[2] = test system: ScoMcrA-SBD R117K (Streptomyces coelicolor); assay: fluorescence polarization; conditions: phosphorothioate G(PS)GCC, EMSA: 20 mM Tris-HCl pH 8.5, 200 mM NaCl, 1 mM DTT, 5% glycerol, 4 C, 30 min, FP: 20 mM Tris pH 8.0, 50 mM NaCl, room temperature, 5 nM …
[3] = test system: ScoMcrA-SBD A168I (Streptomyces coelicolor); assay: EMSA; conditions: Rp phosphorothioate G(PS)GCC, both strands, EMSA: 20 mM Tris-HCl pH 8.5, 200 mM NaCl, 1 mM DTT, 5% glycerol, 4 C, 30 min, FP: 20 mM Tris pH 8.0, 50 mM NaCl, room temperature, 5 nM …
[4] = test system: ScoMcrA-SBD H116I (Streptomyces coelicolor); assay: EMSA; conditions: Rp phosphorothioate G(PS)GCC, both strands, EMSA: 20 mM Tris-HCl pH 8.5, 200 mM NaCl, 1 mM DTT, 5% glycerol, 4 C, 30 min, FP: 20 mM Tris pH 8.0, 50 mM NaCl, room temperature, 5 nM …
[5] = test system: ScoMcrA-SBD R190A (Streptomyces coelicolor); assay: EMSA; conditions: Rp phosphorothioate G(PS)GCC, both strands, EMSA: 20 mM Tris-HCl pH 8.5, 200 mM NaCl, 1 mM DTT, 5% glycerol, 4 C, 30 min, FP: 20 mM Tris pH 8.0, 50 mM NaCl, room temperature, 5 nM …
[6] = test system: ScoMcrA-SBD R191A (Streptomyces coelicolor); assay: EMSA; conditions: Rp phosphorothioate G(PS)GCC, both strands, EMSA: 20 mM Tris-HCl pH 8.5, 200 mM NaCl, 1 mM DTT, 5% glycerol, 4 C, 30 min, FP: 20 mM Tris pH 8.0, 50 mM NaCl, room temperature, 5 nM …
[7] = test system: ScoMcrA-SBD S187A (Streptomyces coelicolor); assay: EMSA; conditions: Rp phosphorothioate G(PS)GCC, both strands, EMSA: 20 mM Tris-HCl pH 8.5, 200 mM NaCl, 1 mM DTT, 5% glycerol, 4 C, 30 min, FP: 20 mM Tris pH 8.0, 50 mM NaCl, room temperature, 5 nM …
[8] = test system: ScoMcrA-SBD Y164F (Streptomyces coelicolor); assay: EMSA; conditions: Rp phosphorothioate G(PS)GCC, both strands, EMSA: 20 mM Tris-HCl pH 8.5, 200 mM NaCl, 1 mM DTT, 5% glycerol, 4 C, 30 min, FP: 20 mM Tris pH 8.0, 50 mM NaCl, room temperature, 5 nM …
[9] = test system: ScoMcrA-SBD Y164I (Streptomyces coelicolor); assay: EMSA; conditions: Rp phosphorothioate G(PS)GCC, both strands, EMSA: 20 mM Tris-HCl pH 8.5, 200 mM NaCl, 1 mM DTT, 5% glycerol, 4 C, 30 min, FP: 20 mM Tris pH 8.0, 50 mM NaCl, room temperature, 5 nM …
[10] = target: the molecule itself; assay: crystal structure; ScoMcrA-SBD-SRA (91-442) with 10 bp Rp PT-DNA, 3.30 Å, space group I4122; the two protomers are related by the crystallographic two-fold rotation axis
ScoMcrA-SBD-SRA = target: T2, ScoMcrA-SBD-SRA (Streptomyces coelicolor, UniProt Q9L0M9 91-442); assay: crystal structure (3.30 A); EMSA: 20 mM Tris-HCl pH 8.5, 200 mM NaCl, 1 mM DTT, 5% glycerol, 4 C, 30 min; FP: 20 mM Tris pH 8.0, 50 mM NaCl, 1 mM DTT, 5% glycerol, room temperature, 5 nM FAM-DNA; conditions: protein: recombinant; tags: MBP tag removed by TEV; chain copies: 2; blunt
T2 sequence: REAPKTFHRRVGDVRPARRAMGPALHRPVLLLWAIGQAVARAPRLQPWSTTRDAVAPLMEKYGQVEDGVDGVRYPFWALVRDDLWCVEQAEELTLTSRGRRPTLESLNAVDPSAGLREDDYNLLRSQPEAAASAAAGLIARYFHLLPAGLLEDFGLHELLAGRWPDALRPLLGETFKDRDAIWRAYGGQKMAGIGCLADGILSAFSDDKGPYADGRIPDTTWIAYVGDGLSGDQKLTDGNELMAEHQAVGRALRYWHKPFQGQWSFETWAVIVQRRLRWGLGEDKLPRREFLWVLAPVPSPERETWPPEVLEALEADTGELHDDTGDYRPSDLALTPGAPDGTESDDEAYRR

ScoMcrA-SBD [11] = target: T1, ScoMcrA-SBD; assay: crystal structure (1.70 A); EMSA: 20 mM Tris-HCl pH 8.5, 200 mM NaCl, 1 mM DTT, 5% glycerol, 4 C, 30 min; FP: 20 mM Tris pH 8.0, 50 mM NaCl, 1 mM DTT, 5% glycerol, room temperature, 5 nM FAM-DNA; conditions: protein: recombinant; tags: MBP tag removed by TEV; blunt
[12] = target: the molecule itself; assay: crystal structure; full-length ScoMcrA alone, 3.15 Å, space group P212121, six molecules in each asymmetric unit
ScoMcrA FL = target: T3, ScoMcrA FL (Streptomyces coelicolor, UniProt Q9L0M9 1-560); assay: EMSA; EMSA: 20 mM Tris-HCl pH 8.5, 200 mM NaCl, 1 mM DTT, 5% glycerol, 4 C, 30 min; FP: 20 mM Tris pH 8.0, 50 mM NaCl, 1 mM DTT, 5% glycerol, room temperature, 5 nM FAM-DNA; conditions: protein: recombinant; tags: MBP tag removed by TEV; chain copies: 2; blunt
T3 sequence: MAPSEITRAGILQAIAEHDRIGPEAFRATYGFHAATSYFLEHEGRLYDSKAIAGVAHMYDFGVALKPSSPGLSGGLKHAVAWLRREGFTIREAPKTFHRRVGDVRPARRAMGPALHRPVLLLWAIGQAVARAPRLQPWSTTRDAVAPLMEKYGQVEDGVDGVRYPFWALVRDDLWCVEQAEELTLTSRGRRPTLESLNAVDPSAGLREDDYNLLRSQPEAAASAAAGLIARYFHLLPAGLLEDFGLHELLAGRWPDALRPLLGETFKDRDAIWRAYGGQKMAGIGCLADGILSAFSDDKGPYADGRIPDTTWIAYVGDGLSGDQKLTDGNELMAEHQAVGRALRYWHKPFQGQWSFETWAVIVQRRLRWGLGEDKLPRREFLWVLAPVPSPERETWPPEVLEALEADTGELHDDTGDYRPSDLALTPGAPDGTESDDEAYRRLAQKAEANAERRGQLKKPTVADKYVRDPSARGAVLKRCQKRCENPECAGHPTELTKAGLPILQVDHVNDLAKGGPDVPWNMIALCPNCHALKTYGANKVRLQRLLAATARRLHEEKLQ

ScoMcrA-SBD [13] = target: T1, ScoMcrA-SBD; assay: as above; conditions: protein: recombinant; tags: MBP tag removed by TEV; blunt

Q: Which results are given for 5-FAM PT-DNA, GGCC core (FP)?
A: Kd (ScoMcrA-SBD [1]): 1320 nM; Kd [2]: 1550 nM

Q: Which Kd (ScoMcrA-SBD [1]; one strand) does the source give for 5-FAM hemi-PT-DNA (FP) here?
A: 1470 nM

Q: With Rp PT-DNA, GGCC core (EMSA) as the molecule, how does the binding signal (% reduction vs WT) [3] read?
A: 51

Q: What about the binding signal (% reduction vs WT) [4] of the same molecule?
A: 94

Q: And the binding signal (% reduction vs WT) [5]?
A: 82

Q: And the binding signal (% reduction vs WT) [6]?
A: 72

Q: What about the binding signal (% reduction vs WT) [7] of the same molecule?
A: 38

Q: What about the binding signal (% reduction vs WT) [8] of the same molecule?
A: 65

Q: What about the binding signal (% reduction vs WT) [9] of the same molecule?
A: 89

B1: SBD-SRA domains of ScoMcrA (residues 91-442) (domain or fragment, Streptomyces coelicolor, UniProt Q9L0M9 91-442, looked up)
chain: T2 sequence
notes: ScoMcrA (ScoA3McrA), Streptomyces coelicolor, SBD-SRA domains, residues 91-442; Crystallised in complex with a 10 bp Rp PT-DNA; the dimer is formed by a crystallographic two-fold axis; also called ScoMcrA-SBD-SRA; source: E. coli BL21(DE3), purified (HisTrap, TEV cleavage, heparin, Source 15Q, Superdex 200)
Q: B1 was tested. Which “stoichiometry N” value [10] did it give?
A: 2

B2: GGCC10 Rp (dsDNA)
DNA 1: CCCGGCCGGG
DNA 2: CCCGGCCGGG
modifications: Rp phosphorothioate between G4 and G5, both strands
Q: Does B2 bind (ScoMcrA-SBD-SRA)?
A: binds

B3: GGCC8 Rp (dsDNA)
DNA 1: CCGGCCGG
DNA 2: CCGGCCGG
modifications: Rp phosphorothioate between G3 and G4, both strands
Q: Does B3 bind (ScoMcrA-SBD [11])?
A: binds

B4: full-length Streptomyces coelicolor ScoMcrA (ScoA3McrA), DNA phosphorothioation-dependent Type-IV restriction endonuclease (enzyme, UniProt Q9L0M9 1-560, looked up)
chain: T3 sequence
notes: ScoMcrA (ScoA3McrA), Streptomyces coelicolor, full length; head, SBD, SRA and HNH domains; the model reaches residue 560; The structure was phased by SAD with a selenomethionine derivative of the full-length protein; Cloned into pSJ8; also called FL ScoMcrA; source: E. coli BL21(DE3), purified (HisTrap, TEV cleavage, heparin, Source 15Q, Superdex 200)
Q: For B4, which “stoichiometry N” value [12] is on record?
A: 2

B5: hemi-PT-DNA (S10hemi-S/U10hemi-A) (dsDNA)
DNA 1: CCCGGCCGCC
DNA 2: GGCGGCCGGG
modifications: Rp phosphorothioate between G4 and G5 of strand 1 only
Q: Does B5 bind (ScoMcrA FL)?
A: binds

Q: Does B5 bind (ScoMcrA-SBD [13])?
A: binds
